{
  "source": "patent US20230226096A1",
  "about": "(Orna Therapeutics, Inc., priority 2020, published 2023)",
  "molecules": {"B1": {"name": "Mosavirus A2 SZAL6 (nucleic acid, listed as Mosavirus sp.)", "DNA": "CCCCCCCCTCAAATTGCAACGATATAGCTAATGGCGAGATTGAGATGCTATATCACCTCTTCTAAGTTATAGACCTCATCTGATTGATAAGGACGTAATTTGGTCGAAACCGCTTGGAATAAGACCGATGCGCGTAGTCATGATGATGATGTAAGATCTAGGAACTTATCCAATCTGCTTATGTCTATGTAAGTAGAGGGGCAGGCCTCATTGCCCTAATTCTTTCTACCGAGTATCTGCTAGGGTTTCTAGCGGCTTGAATACTTGGATTGAGGGATACAAGATACTACTGATCGATTGTCGATTGGGAAACTTGTAGATACTTCAAAGCTACCAGTAGCGTGGACTCACAGCCAGCGGACTACCCCTCATGGTAACATGAGCCTCTGGGCCCACAAGGCACGTCGCAAGACCTGTGAGACGGCAACCCCAGCCTAGCTTTGTTGAGGAAACAAGCGATAACATGACATGAGAGACCGGAAGGATTCTTGTATTGTGAGCCGAAGGATGGCCTCTAGGTACCTCATTTTATGAGATCTGAGGAGGTGCTCTTGAGTTGGTGCTTTACACTGACAACACAGAGTTAAAAAGCGTCTAAGCTCACCCGGAAATTGGGAAATTTCCGTTATTTCCATTTTGTTTGCAAAGTCGTTC"}, "B2": {"name": "PTV B (nucleic acid)", "DNA": "CTTCCTTTTAATTCGTAACTGATAAGTGATAGTCCTTGGAAGCTAGGTATTTGTTACGCTAGTTTTGGATTATCTTGTGCCCAACATTTGTTTTCGAACATATGTTGTGTTTAAACACAGAAATCTAGTTTCTTTGGTTATGAGTTTAATGGAATATCCTTTTGAAAGACTTGCCTTGGCGCGGGCTAGAGCGCAATTGTCACCAGGTATTGCACCAATGGTGGCGACAGGGTACAGAAGAGCAAGTACTCCTGACTGGGTAATGGGACTGCATTGCATATCCCTAGGCATCTATTGAGATTTCTCTGGAGCCCACCAGCATGGAGTTCCTGTATGGGAATGCAGGACTGGACTTGTGCTGCCTGACAGGGTCGCGGCTGGCCGTCTGTACTTTGTATAGTCAGTTGAAACTCATT", "modifications": "Teschovirus B"}, "B3": {"name": "Cosavirus B1 (nucleic acid, listed as Cosavirus sp.)", "DNA": "CGTGCTTTACACGGTTTTTGAACCCCACACCGGCTGTTTGGCGCTTGCAGGACAGCAGGTTTATTTTCTTTTAACTCTCTCTTTCTAGCCACACACGATCTATGTGTGTGGGCGGAGTGATACTCCCGTTCCTTCTTGGACAGGCGGCCTCCACGCCCTTTGTGGATCTTAAGGCTACCAAGTCACTGGTGTTGGAAAGTGAAGAGAAAGGAGTTCCTTGGGAACTACATGTGGCATTGACAGAGGTTGTAGCGATGCTGTGTGTGTGTGCGGATTACCCCCGTGGCGACACGGACCCCACAGGCCAAAAGCCCTGTCCGAAAGGACCCACACAGTGGAGCAACCCCAGCTCCCCTCTTCAATGTTTTGTGTTAGCAACCTTGGTATTATTTTCTCTCAAGCTTCCAATACACCGGGCCCCAAAGATGTCCTGAAGGTACCCCGTGTATCTGAGGATGAGCACCATCAACTACCCGGACTTGTTCTTTCGAGAACAGACGCATGTGGTAACCCAGCCCCGATCCTAAGGGGTCGGGGCTTTTGCTCACTCAGCACAGGATCTGATCAGGAGACCTCCCCCCCCTGCTTTACAGGGGGCGGGGGTTTAAAAATTGCCCAAGGCCTGGCAAATAACCTAGGGGACTAGGTTTTCCTTTTTATTTTAAAGTTGTCAAT"}, "B4": {"name": "SVV (nucleic acid)", "DNA": "CTGGGCCCTCATGCCCAGTCCTTCCTTTCCCCTTCCGGGGGGTAAACCGGCTGTGTTTGCTAGAGGCACAGAGGAGCAACATCCAACCTGCTTTTGTGGGGAACGGTGCGGCTCCAATTCCTGCGTCGCCAAAGGTGTTAGCGCACCCAAACGGCGCATCTACCAATGCTATTGGTGTGGTCTGCGAGTTCTAGCCTACTCGTTTCTCCCCTATCCACTCACTCACGCACAAAAAGTGTGCTGTAATTACAAGATTTAGCCCTCGCACGAGATGTGCGATAACCGCAAGATTGACTCAAGCGCGGAAAGCGCTGTAACCACATGCTGTTAGTCCCTTCATGGCTGCGAGATGGCTATCCACCTCGGATCACTGAACTGGAGCTCGACCCTCCTTAGTAAGGGAACCGAGAGGCCTTCTTGCAACAAGCTCCGACACAGAGTCCACGTGATTGCTACCACCATGAGTACATGGTTCTCCCCTCTCGACCCAGGACTTCTTTTTGAATATCCACGGCTCGATCCAGAGGGTGGGGCATGATCCCCCTAGCATAGCGAGCTACAGCGGGAACTGTAGCTAGGCCTTAGCGTGCCTTGGATACTGCCTGATAGGGCGACGGCCTAGTCGTGTCGGTTCTATAGGTAGCACATACAAAT"}, "B5": {"name": "Tottorivirus (nucleic acid, listed as Tottorivirus sp.)", "DNA": "CCCCTTTACGTAACTGCAACTTAAAGAGTACCCTACTGCATTGGATGTGTGGTAAACTTTTACGCACACATTTGTAGTAGTGTTAGTTATGTTCTACCTAATGAGTATGCATGCACCCGTCGAAACACGCTTGTGATAAGATAGGTGAGTCCATGTGACTAATCTCATTAAGATAAATAAGCACCCTACAACGCACGGCACGCTCGTGTCTTCCGTGCGGGGCCGGGACAACAGCGGCCTAAATCTTCTAGGTGACCACCATGCTTTTGGGACTATGGCACCACTGTGGACGTGAGTACCTGGCAGTAAGTCTGTGAAAAGATGGAAGGTGTCCCAAGCTATGGGGCGTATGCATATAGCCTGCGGAACAAACAACGGCGACGTTGTCCCCAGGGCCCAAAAGGCACGTGGATAAGATCCACCTATATGTTTACCCCATAGTGTAAGTCACTGGAAGTCCTAGTAATGGATGTCTGGAGTAAGGCTCACGGGGTAGGGCGAAGGATGCCCAGAAGGTACCCGTAGGTAACCTTAAGAGACTATGGATCTGATCTGGGGACCGGATGGCGCCATCACCATGACGTGGAGGCCGGTTTAAAAAACGTCTAAGCCCGACCAACAACCTAGGGGACTAGGTTTTCCTTTTTTATTCATGTATGACGTT"}, "B6": {"name": "REV A (nucleic acid, listed as Reticuloendotheliosis virus)", "DNA": "GGGGTCGCCGTCCTACACATTGTTGTGACGTGCGGCCCAGATTCGAATCTGTAATAAAAGCTTTTTCTTCTATATCCTCAGATTGGCAGTGAGAGGAGATTTTGTTCGTGGTGTTGGCTGGCCTACTGGGTGGGGTAGGGATCCGGACTGAATCCGTAGTATTTCGGTACAACATTTGGGGGCTCGTCCGGGATTCCTCCCCATCGGCAGAGGTGCCTACTGTTTCTTCGAACTCCGGCGCCGGTAAGTAAGTACTTGATTTTGGTACCTCGCGAGGGTTTGGGAGGATCGGAGTGGCGGGACGCTGCCGGGAAGCTCCACCTCCGCTCAGCAGGGGACGCCCTGGTCTGAGCTCTGTGGTATCTGATTGTTGTTGAACCGTCTCTAAGACGGTGATACTATAAGTCGTGGTTTGTGTGTTTGTTTGTTACCTTGTGTTTGTTCGTCACTTGTCGACAGCGCCCTGCGAATTGGTGTACCCACACCGCGCGGCTTGCGAATAATACTTTGGAGAGTCTTTTGCCTCCAGTGTCTTCCGTTTGTACTCGTCCTCCTCTCCCTCTCCGGCCGGGATGGG"}, "B7": {"name": "PTV A (nucleic acid)", "DNA": "ACTAGTCCTTGGACTTTTGTTGTGTTTAAACACAGAAATTTAATTACCTGGCCATGAATTCATTGGATTAACCCTTCTGAAAGACTTGCTCTGGCGCGAGCTAAAGCGCAATTGTCACCAGGTATTGCACCAGTGGTGGCGACAGGGTACAGAAGAGCAAGTACTCCTGACCGGGCAATGGGACTGCATTGCATATCCCTAGGCACCTATTGAGATTTCTCTGGGGCCCACCGGCGTGGAGTTCCTGTATGGGAATGCAGGACTGGACTTGTGCTGCCTGACAGGGTCGCGGCTGGCCGTCTGTACTTTGTATAGTCAGTTGAAACTCACC", "modifications": "Teschovirus A"}, "B8": {"name": "Malagasivirus B (nucleic acid)", "DNA": "CTTTATTTTCTTATGTAACTCTTCTTTTTAAGTTTTATTTTGCCTACTTGTGAGCTTATGCGGGACCACTGTCTTAGACAACCCCACATTTGTCATGAGTAAGTACACGCAACCATTACGATTACTTTTTAACCGTCTGACCTTTTGATAACAACTGAAGTTAGGCGTGAAACATGCATTTATACCAAAGTAGCCCCGCATTTCCCCACTACGGTGGGGGGGCTACCCTACTGGCTTTGGAACTGTAGCCATTATGTGTTGCCTGGCTTTCAGGATCTCACAACACAACAGTTCTCTCACAATGGAATATGGGTGAGATTGCAGTGACATGAACAAGTATCTAGTAGTACATAGACTCAAGCCTAGTTGCCTGCGGAACAACATGTGGTAACACATGCCCCAGGGTCCAAAAGACAAGGGTTAACAGCCCCTTCTAGGTGTCTGTGTGTGAAGAATACTTTAGTAGTGTTGTTATGATCTCACCTGTTAGTACAGAATGAGTATGGCTTGGTGAAGGATGTCCTACAGGTACCCATTATATGGATCTGAGTAGGAGACCACTAGTGGTGGCTTTACCGCCAGGTGAGTGGTTTAAAAAGCGTCTAGCCAAGCCAACAGCACTAGGGATAGTGCTTTCTATATTTTATATTTTCAGTGTAT", "modifications": "Malagasivirus B"}, "B9": {"name": "Cosavirus A SH1 (nucleic acid)", "DNA": "CCGTGCTTTACACGGTTTTTGAACCCCACACCGGCTGTTTGGCGCTTGCAGGACAGCAGGTTTATTTTCTTATGCTCTTTATTTCTAGCCAACAGGGTTCTATCCTGTTGGGCGGAGTGATACTCCCGTTCCTTCTTGGACAGATTGCCTCCACGATCTTTGTGGATCTCAAGGTGATCAAGTCACTGGTAAATAGAGCGAAGGTTGAGGAAACCTGAGGAATTTCCATGTGGTTTTGCCAGGAGTTGTAGCGATGCTGTGTGTGTGTGCGGATTTCCCCTCATGGCAACATGAGCCTCACAGGCCAAAAGCCCTGTCCGAAAGGACCCACACAGTGGAGCAATCCCAGCTCCCTCCTACAAAGCTTTGTGAGAATGAACTCACGTTTATTCTTCTTTATTCTCTGTTTACATCAGGCCCCAAAGATGTCCTGAAGGTACCTTGTGTATCTGGGCATGAGCACCATCAACTACCCGGACTTGCATTTCGGTGCAGACACATGTGGTTACCCAGCCCCTCTGCTTTGGCAGAGGGGCTTTTGCTCGCTCAGCACGAGATCTGATCAGGAGCCCTTCCCAGTGTGCTTTACACCTGGCGGGGGGTTAAAAATTGCCCAAGGCCTGGCAAAATAACCTAGGGGACTAGGTTTTCCTTTTATTAACAATGTCTGTCATT", "modifications": "Cosavirus A"}},
  "data": [
    {"tested_on": "HEK293 cells", "format": "cell-based, human", "settings": "luminescence from secreted Gluc in supernatant 24 hours after transfection of HEK293 cells; circular RNA encoding Gluc with the named IRES (UTR truncated to 675 nt)", "values": [
      {"molecule": "B1", "Expression": "8.27E+06"},
      {"molecule": "B2", "Expression": "6.02E+06"},
      {"molecule": "B3", "Expression": "1.91E+06"},
      {"molecule": "B4", "Expression": "1.06E+06"},
      {"molecule": "B5", "Expression": "2.76E+07"},
      {"molecule": "B6", "Expression": "9.44E+04"},
      {"molecule": "B7", "Expression": "7.29E+05"},
      {"molecule": "B8", "Expression": "5.05E+06"},
      {"molecule": "B9", "Expression": "2.16E+06"}
    ]}
  ]
}
